{"source": "patent US12365732", "about": "(23ANDME, dated 2025)", "binders": {"B1": {"name": "h10G1 IgG (humanized 10G1) (antibody, V domains shown)", "VH": "EIQLVQSGSELKKPGASVKVSCKASGYPFTTYGMSWVRQAPGQGLEWMGWINTDSGVPTYADDFKGRFVFSLDTSVSTAYLQISSLKAEDTAVYFCARNIYYGWGNFDYWGQGTLVTVSS", "VL": "EIVMTQSPDFQSVTPKEKVTITCRASQDIYRNLHWYQQKPDQTPKLLIKHASDSISGIPSRFSGSGSGTDFTLTINSLEAEDAAAYYCLQGYSMPYTFGGGTKVEIKG", "notes": "human IgG1 N297G"}, "B2": {"name": "10G1 (clone 10G1.3G8), purified hybridoma antibody (antibody, V domains shown)", "VH": "QIQLVQSGPELKKPGETVKISCKASGYPFTTYGMSWVKQAPGKGLKWMGWINTDSGVPTYADDFKGRFAFSLETSANTAYLQINSLKNEDAATYFCARNIYYGWGNFDYWGQGTILTVSS", "VL": "DILMTQSPTTLSVTPGETVSLSCRASQDIYRNLHWYQQKSQGTPRLLIKHASDSISGIPSRFTGSGSGTDFTLSINSVKPEDEGIYYCLQGYSMPYTFGGGTKLEIK", "notes": "murine hybridoma IgG"}, "B3": {"name": "mAb1.v7 Fab (Fab, V domains shown)", "VH": "EVQLVQSGAEVKKPGASVKVSCKASGFTFTNNWMHWVRQAPGQGLEWIGMIHPNSGITNINEKFKNRVTMTTDTSTSTAYMELRSLRSEDTAVYYCRSDGTYEGYFDYWGQGTLVTVSS", "VL": "DIQLTQSPSSLSASVGDRVTITCKASQNVGTAIVWYQQKPGKAPKVLIYSASTRYTGVPSRFSGSGSGTDFTLTISSLQPEDFATYYCQQYSSSPLTFGQGTKVEIK"}}, "key": {"[1]": {"target": "T1, cy-CD96 (soluble, extracellular domain) (cynomolgus monkey, UniProt P40200 22-516 (human entry), biotinylated in Octet and blocking ELISA)", "T1 construct": "the assays name only cy-CD96; also called biotinylated cy-CD96", "T1 chain": "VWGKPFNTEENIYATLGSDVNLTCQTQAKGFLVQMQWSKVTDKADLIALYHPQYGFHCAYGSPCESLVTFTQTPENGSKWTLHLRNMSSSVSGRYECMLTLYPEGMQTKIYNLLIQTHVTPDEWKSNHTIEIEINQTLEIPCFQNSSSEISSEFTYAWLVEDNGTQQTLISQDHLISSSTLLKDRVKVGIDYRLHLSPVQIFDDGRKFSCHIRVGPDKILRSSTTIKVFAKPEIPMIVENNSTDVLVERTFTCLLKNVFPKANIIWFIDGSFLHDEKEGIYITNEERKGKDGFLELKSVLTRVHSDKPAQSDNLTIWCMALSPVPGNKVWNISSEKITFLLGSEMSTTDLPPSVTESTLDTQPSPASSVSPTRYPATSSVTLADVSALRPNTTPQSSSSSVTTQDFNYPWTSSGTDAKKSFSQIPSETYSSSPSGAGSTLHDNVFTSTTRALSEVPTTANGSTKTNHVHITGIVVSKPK", "experiment": "SPR 25C, IgG on Protein A, CD96 analyte", "experimental": "SPR measurement with a BIACORE™ 8K instrument was performed to determine the monovalent binding affinity of mAb1.v7 and h10G1 IgG to hu-CD96, cy-CD96, and mo-CD96. Briefly, antibodies were diluted at 0.5 µg/mL in HBS-P buffer (0.01 M HEPES pH 7.4, 0.15 M NaCl, 0.005% Surfactant P20) and applied to the Protein A chip at 30 µL/min flow rate for 60 s in flow cell 2 (FC2). Then 3-fold serial dilutions of hu-CD96, cy-CD96, or mo-CD96 in HBS-P buffer (0.01 M HEPES pH 7.4, 0.15 M NaCl, 0.005% surfactant P20) from (0.4 nM) to high (100 nM) were injected (flow rate: 30 µL/min) at 25° C. to both flow cell 1 (FC1) and flow cell 2 (FC2). The sensorgram was recorded and subject to reference and buffer subtraction before evaluating by BIACORE® 8K Evaluation Software (version 1.1.1.7442). Association rates ($kon$) and dissociation rates ($koff$) were calculated using a simple one-to-one Langmuir binding model."}, "[2]": {"target": "T2, hu-CD226 on Expi293 cells (human, UniProt Q15762 19-336)", "T2 sequence": "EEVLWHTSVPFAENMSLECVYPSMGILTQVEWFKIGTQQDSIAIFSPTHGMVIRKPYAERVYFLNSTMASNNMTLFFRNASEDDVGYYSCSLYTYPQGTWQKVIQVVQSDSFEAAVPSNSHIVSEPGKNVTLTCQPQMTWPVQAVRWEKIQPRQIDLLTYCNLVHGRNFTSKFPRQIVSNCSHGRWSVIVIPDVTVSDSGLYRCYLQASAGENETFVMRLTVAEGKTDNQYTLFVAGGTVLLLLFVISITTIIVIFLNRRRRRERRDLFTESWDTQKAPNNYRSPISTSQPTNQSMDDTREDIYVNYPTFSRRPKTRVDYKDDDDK", "experiment": "FACS, CD226-transfected Expi293 cells", "experimental": "In order to assess the generated antibodies for secondary binding to CD226, sequences encoding human CD226 (\"hu-CD226\") (SEQ ID NO: 482) and cyno CD226 (\"cy-CD226\") (SEQ ID NO: 483) (see Table 26 and Sequence Listing) were each cloned into pcDNA3.1 expression vector and Expi293 cells were separately transfected with plasmid containing either the hu-CD226 or cy-CD226 coding sequence. Starting concentrations of 1 μM and corresponding 3X serial dilutions of each antibody, NGS8, 10G1, and MABT398 (CD226 positive control, EMD Millipore, Burlington, MA, USA), were prepared for staining. Secondary antibodies employed included goat anti-mouse F(ab)2-PE (Invitrogen, Carlsbad, CA, USA) and goat anti-human F(ab)2-PE (Jackson ImmunoResearch, West Grove, PA, USA).\nSamples, each containing one million transfected cells, were stained with primary antibody for 1 hr and secondary antibody for 30 min at 4° C. with agitation. Stained cells were washed in FACS buffer (1% BSA in PBS), fixed in 4% freshly prepared paraformaldehyde, and analyzed by flow cytometry. Ten thousand events were collected for each sample and curves, showing the fold change in CD226 binding, were separately plotted for hu-CD226 (FIG. 12A) and cy-CD226 (FIG. 12B) expressing cells."}, "[3]": {"target": "T3, hu-CD96 (soluble, isoform 2 extracellular domain) (human, UniProt P40200 22-516, biotinylated in Octet and blocking ELISA)", "T3 construct": "the assays name only hu-CD96; also called hCD96; biotinylated hu-CD96", "T3 sequence": "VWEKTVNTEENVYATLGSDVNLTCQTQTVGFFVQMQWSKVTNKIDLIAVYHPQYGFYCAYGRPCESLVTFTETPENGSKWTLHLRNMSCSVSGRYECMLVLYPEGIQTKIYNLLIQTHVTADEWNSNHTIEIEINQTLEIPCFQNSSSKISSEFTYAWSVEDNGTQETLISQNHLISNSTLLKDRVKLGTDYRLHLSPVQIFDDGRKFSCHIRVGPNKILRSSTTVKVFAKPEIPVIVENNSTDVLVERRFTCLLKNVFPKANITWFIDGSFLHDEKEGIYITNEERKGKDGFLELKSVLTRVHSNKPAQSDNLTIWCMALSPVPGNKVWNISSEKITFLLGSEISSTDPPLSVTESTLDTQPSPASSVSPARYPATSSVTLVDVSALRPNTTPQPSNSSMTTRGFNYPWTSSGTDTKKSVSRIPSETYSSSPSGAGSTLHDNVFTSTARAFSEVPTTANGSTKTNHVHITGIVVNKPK", "experiment": "CD155 blocking ELISA"}, "[4]": {"target": "T3, hu-CD96 (soluble, isoform 2 …)", "experiment": "BLI (Octet), biotin-CD96 on SA, Fab analyte"}}, "data": [{"binder": "B1", "values": [{"measurement": "Kd", "setting": "[1]", "value": 0.74, "unit": "nM"}]}, {"binder": "B2", "values": [{"measurement": "EC50", "setting": "[2]", "value": 232, "unit": "nM"}]}, {"binder": "B3", "values": [{"measurement": "apparent IC50 (pooled screen)", "setting": "[3]", "value": 0.74, "unit": "nM"}, {"measurement": "apparent Kd (pooled screen)", "setting": "[4]", "value": 76, "unit": "nM"}]}]}
